Test: yeast display, Sf9 membrane polyspecificity reagent, FACS + sequencing; frameworks hold sequencing errors
Outline: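 Sorting gates, low and high (top ~1%), were placed on anti-HA fluorescence to track expression and on streptavidin fluorescence to track reagent binding. A clone's polyreactivity label is taken from the gate it came out of. The reagent was 10% biotinylated, detergent-solubilized Sf9 membrane, applied for 1 hour at 4 °C to galactose-induced yeast display cells.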

Row | Sequence | polyreactivity (PSR sort gate)
1 | QVQLVESGGGLVQAGGSLRLSCAASGFTFYPYVMGWYRQAPGKERELVAAINSGGARTYYADSVKGRFTISRDNAKNTVYLQMNSLKPEDTAVYYCAARTVVGGRIYYYWGQGTQVTVSS | high polyreactivity
2 | QVQLVESGGGLVQAGGSLRLSCAASGFTFYQNAMGWYRQAPGKVRELVAAIDRRGGRTYNADSVKGRFTISRDNAKKTVYLQMNSLKPEDTAVYYCNKEKYYTGYDYWGQGTQVTVSS | high polyreactivity
3 | QVQLVESGGGLVQAGGSLRLSCAASGFTFYQYAMGWYRQAPGKERELVAAITRRGGSTSYADSVKGRFTISRDNAKNTVYLQMNSLKPEDTAVYYCAREGSNSGRHGTLFDYWGQGTQVTVSS | high polyreactivity
4 | QVQLVESGGGLVQAGGSLRLSCAASGFTFYRNAMGWYRQAPGKERELVAAITWSGTSTYYADSVKGRFTISRDNAKNTVYLQMNSPKPEDTAVYYCNTVGYRGRSNSRFYYWGQGTQVTVSS | high polyreactivity
5 | QVQLVESGGGLVQAGGSLRLSCAASGFTFYRYAMGWYRQAPGKEREFVASISWSGGSTYYADSVKGRFTISRDNAKNTVYLQMNSLKPEDTAVYYCAATSQAYWDLWSTYYTYYYWGQGTQVTVSS | high polyreactivity
6 | QVQLVESGGGLVQAGGSLRLSCAASGFTFYRYAMGWYRQAPGKERELVAAISRGGSTNYADSVKGRFTISRDNAKNTVYLQMNSLKPEDTAVYYCNTRYVKGFYWGQGTQVTVSS | high polyreactivity
7 | QVQLVESGGGLVQAGGSLRLSCAASGFTFYRYAMGWYRQAPGKERELVAAISSTGDRTYYADSVKGRFTISRDNAKNTVYLQMNSLKPEDTAVYYCAAPYQNQVEFNYWGQGTQVTVSS | high polyreactivity
8 | QVQLVESGGGLVQAGGSLRLSCAASGFTFYRYAMGWYRQAPGKERELVAAITWSGGSTYYADSVKGRFTISRDNAKNTVYLQMNSLKPEDTAVYYCAASRWIFQVNDYDYWGQGTQETVSS | high polyreactivity
9 | QVQLVESGGGLVQAGGSLRLSCAASGFTFYRYAMGWYRQAPGKERELVATISASGASTYYADSVKGRFSISRDNAKNNVYLQMNRLKPEDTAVYYCAVRYKSWYGFNYWGQGTQVTVSS | high polyreactivity
10 | QVQLVESGGGLVQAGGSLRLSCAASGFTFYRYAMGWYRQAPGKERELVAVITRGGSTNYADSVKGRFTISRDNAKNTVYLQMNSLKPEDTAVYYCAARWFAGDWDYWYDYWGQGTQVTVSS | low polyreactivity
11 | QVQLVESGGGLVQAGGSLRLSCAASGFTFYRYARGWYRQAPGKERELVAAISSDGTTYYADSVKGRFTISRDNATNTVYLQMNSLKPEDTAVYYCAKRGYYRSRRYDYWGQGTQVTVSS | high polyreactivity
12 | QVQLVESGGGLVQAGGSLRLSCAASGFTFYRYDMGWYRQAPGKERELVAAITNNGGNTYYADSVKGRFTISRDNAKNTVYLQMNSLKPEDTAVYYCATKRYYWRGYWGQGTQVTVSS | high polyreactivity
13 | QVQLVESGGGLVQAGGSLRLSCAASGFTFYRYTMGWYRPARGKESELVARITYSGGSTYYADSVKGRFTISRDNAKNTVYLQLNSVKPVDTAVYYCNARSDFYSRYGYKYDYWGQGTQVTVSS | high polyreactivity
14 | QVQLVESGGGLVQAGGSLRLSCAASGFTFYRYTMGWYRQAPGIYRELVAAISSGDSTYYADSVKGRFTISRDNAKNTVYLQMNSLKPEDTAVYYCAARQYSRGAIVYYWGQGTQVTVSS | high polyreactivity
15 | QVQLVESGGGLVQAGGSLRLSCAASGFTFYSKAMGWYRQAPGKERQLVATIRSDGRTNYADSVKGRFTISRDNAKNTVYLQMNSLNPEDTAVYYCNADYRNDWGTPLWYAYNYWGQGTQVTVSS | low polyreactivity
16 | QVQLVESGGGLVQAGGSLRLSCAASGFTFYSNAMGWSRQAPGKERELVATIRYRGGSTYADSVKGRFTISRDNAKNTVYLQMNSLKPEDTAVYYCAARKYRSFRQRTGDYWGQGTQVTVSS | high polyreactivity

Row | Sequence | polyreactivity (PSR sort gate)
17 | QVQLVESGGGLVQAGGSLRLSCAASGFTFYSNAMGWYRQAPGKERELVAAITSSGGSTYYADSVKGRFTISRDNAKNTVYLQMNSLKPEDTAVDYCNVRVGYRRYGYWGQGTQVTVSS | high polyreactivity
18 | QVQLVESGGGLVQAGGSLRLSCAASGFTFYSYAMGWYRQAPGKEREFVAAGSTYYADSVKGRFTISRGNAKNTVYLQMNSLKPEDTAVYYCAADPWIYVQSYGYWGQGTQVTVSS | low polyreactivity
19 | QVQLVESGGGLVQAGGSLRLSCAASGFTFYSYAMGWYRQAPGKERELVAAISKRGGDTSYADSVKGRFTISRDNAKNTVYLQMNSLKPEDTAVYYCAKVYVPYGSSGGFLSRYNYWGQGTQVTVSS | high polyreactivity
20 | QVQLVESGGGLVQAGGSLRLSCAASGFTFYSYAMGWYRQAPGKERELVAAITRSGGSTRYADSVKGRFTISRDNAKNTVYLQMNSLKPEDTAVYYCAARFVRNYVYKYNYWGQGTQVTVSS | high polyreactivity
21 | QVQLVESGGGLVQAGGSLRLSCAASGFTFYSYAMGWYRQAPGKERELVAGISRSGGSTYYADSVKGRFTISRDNAKNTVYLQMNSLKPEDTAVYYCNVRLRKKIQNSKYDYWGQGTQVTVSS | high polyreactivity
22 | QVQLVESGGGLVQAGGSLRLSCAASGFTFYTNAMGWYRQAPGKERELVAAISKRGASTYYADSVKGRFTISRDNAKNTFYLQMYSLKPEDTAVYYCAASSRTHGSYYYWGQGTQVTVSS | high polyreactivity
23 | QVQLVESGGGLVQAGGSLRLSCAASGFTFYTNAMGWYRQAPGKERELVAGINSGSSTYYADSVKGRFTISRDNAKNTVYLQMNSLKPEDTAVYYCAARARRRYYYWGQGTQVTVSS | high polyreactivity
24 | QVQLVESGGGLVQAGGSLRLSCAASGFTFYTNTMGWYRQAPGKERELVAVISRTGGSTYYADSVKGRFTISRDNANNTVYLQMKSLKPEDTAVYYCAKRGQWPYDYFIGNYWGQGSQVTVSS | high polyreactivity
25 | QVQLVESGGGLVQAGGSLRLSCAASGFTFYTYALGWYRQAPGKEWELVAAITSGGGTYYADSVKGRFTISRDNAKNTVYLQMNSLKPEDTAVYYCNRASRRGYYYPYNYWGQGTQVTVSS | high polyreactivity
26 | QVQLVESGGGLVQAGGSLRLSCAASGFTFYTYVKGWYRQAPGKERELVAAITSGVSTNYADSVKGRFTISRDNAKNTVYLQMNSVKPEDTAVYYFNKTFLFLEYDSWGQGTQVTVSS | low polyreactivity
27 | QVQLVESGGGLVQAGGSLRLSCAASGFTFYVNAMGWYRQAPGKERELVAVISTGGSTYYADSVKGRFTISRDNAKNTVYLQMNSLKPEDTAVYYCAKRDLPDRSGTPNVIPFDYWGQGTQVTVSS | low polyreactivity
28 | QVQLVESGGGLVQAGGSLRLSCAASGFTFYVYAMGWYRQAPGKEREFVAAISSSGGSTYYADSVKGRFTISRDNAKNTVYLQMNSLKPEDTAVYYSAALAYSTTRGRLDYWGQGTQVTVSS | high polyreactivity
29 | QVQLVESGGGLVQAGGSLRLSCAASGFTFYVYAMGWYRQAPGKERELVAAISRSGGSTYYADSVKGRFTISRDNAKNTVYLQMNSLKPEDTAVYYFAVVQRYWSPGIVPYVYWGQGTQVTVSS | high polyreactivity
30 | QVQLVESGGGLVQAGGSLRLSCAASGFTFYWYTMGWNRQAPGKERELVAAISRRGGSTSYADSVKGRFTISRDNAKNTVYLQMNSLKPEDTAVYYCAKTPGWTDYDYWGQGTQVTVSS | high polyreactivity
31 | QVQLVESGGGLVQAGGSLRLSCAASGFTFYYNAMGGYRQAPGKEREFVAGITRTGGSTYYADSVKGRFTISRDNAMNTVYLQIKSLKPEDTAVYYCAATHYYYGTSRYDYWGQVTQVTVSS | high polyreactivity
32 | QVQLVESGGGLVQAGGSLRLSCAASGFTFYYNAMGWYRQAPGKERELVAAISWTGGSTRYADSVKGRFTISRDNAKNTVYLQMNSLKPEDTAVYYCAARGYNYWGQGTQVTVSS | high polyreactivity

Source: the nanobody polyreactivity screen of Harvey et al. (2022)
